Columns and labels:
[1] = biological target: human PD-1 on cells (transfected Expi293 cells, PHA-cultured T cells, cells of the Promega PD1-PDL1 bioassay, T cells of the MLR) (human) (UniProt Q15116); assay: cell-based or functional assay
[2] = biological target: soluble PD-1 (biotinylated PD-1; expi293 expressed soluble PD1-avi) (human) (UniProt Q15116); assay: method not named at the list; Octet (BLI) on biotinylated PD-1 by context
[3] = biological target: soluble PD-1 (biotinylated PD-1; expi293 expressed soluble PD1-avi) (human) (UniProt Q15116); assay: Octet (BLI)

soluble PD-1 (biotinylated PD-1; expi293 expressed soluble PD1-avi) (human), sequence (Q15116 25-170): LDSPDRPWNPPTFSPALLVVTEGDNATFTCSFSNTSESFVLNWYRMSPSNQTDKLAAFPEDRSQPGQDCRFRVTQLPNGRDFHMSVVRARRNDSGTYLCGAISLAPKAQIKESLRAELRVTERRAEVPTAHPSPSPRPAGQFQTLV
human PD-1 on cells (transfected Expi293 cells, PHA-cultured T cells, cells of the Promega PD1-PDL1 bioassay, T cells of the MLR) (human), sequence (Q15116 25-288): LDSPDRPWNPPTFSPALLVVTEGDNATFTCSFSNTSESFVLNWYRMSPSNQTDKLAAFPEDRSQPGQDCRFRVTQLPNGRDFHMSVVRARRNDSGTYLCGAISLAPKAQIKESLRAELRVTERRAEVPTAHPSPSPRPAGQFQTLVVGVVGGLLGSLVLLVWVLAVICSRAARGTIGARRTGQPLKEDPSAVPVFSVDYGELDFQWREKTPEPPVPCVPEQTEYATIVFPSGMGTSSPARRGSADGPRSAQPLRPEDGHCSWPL

EC50 against Nivo, Promega PD1-PDL1 bioassay (fold of the EC50 of Nivo) [1]	Kd [2] [nM]	Kd [3] [nM]	koff [3] [s⁻¹]	kon [3] [M⁻¹ s⁻¹]	Binder
1.75	1	–	–	–	P4-B3 minibody (scFv-Fc) (Fc fusion, part only; not given: Hinge, Fc, domain order, not shown: another chain or arm of the molecule; a dimerising Fc or GST; small tags and cut ends) VH: QVQLVQSGGGLVQPGRSLRLSCAASGFTFDDYAMHWVRQAPGKGLEWVSGISWNSGSIGYADSVKGRFTVSRDNAKNSLYLQMNSLRAEDTAVYYCASDYGDKYYYYGMDVWGKGTTVTVSS VL: QPGLTQPPSASGTPGQRVTISCSGSSSNIGSNTVNWYQQFPGKAPKLLIFNDNQRPSGVPDRFSASKSGTSASLAISGLQSEDEADYYCAAWDGGLNGRGVFGGGTKLTVL
–	–	0.94	6.45e-05	68500	P4-B3 scFv (scFv, part only; not given: Linker, domain order, tag, V domains shown, not shown: another chain or arm of the molecule; small tags and cut ends) VH: QVQLVQSGGGLVQPGRSLRLSCAASGFTFDDYAMHWVRQAPGKGLEWVSGISWNSGSIGYADSVKGRFTVSRDNAKNSLYLQMNSLRAEDTAVYYCASDYGDKYYYYGMDVWGKGTTVTVSS VL: QPGLTQPPSASGTPGQRVTISCSGSSSNIGSNTVNWYQQFPGKAPKLLIFNDNQRPSGVPDRFSASKSGTSASLAISGLQSEDEADYYCAAWDGGLNGRGVFGGGTKLTVL
